Residue numbers refer to the chain shown, from its start.

The target in one assay is T1, NLpoly11S.
T1 chain: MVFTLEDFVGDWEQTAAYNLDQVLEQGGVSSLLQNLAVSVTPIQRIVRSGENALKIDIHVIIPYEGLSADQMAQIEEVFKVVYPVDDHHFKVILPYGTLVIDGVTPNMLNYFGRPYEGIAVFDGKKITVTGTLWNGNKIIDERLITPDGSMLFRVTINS
Briefly: luminescence complementation titration (E. coli lysate NLpoly, synthetic NLpep), one site-specific binding fit.
Details: not given
With VSGWRLFKKIS (modifications not checked) [NLpep86], the Kd was under 1 nM and the fold improved affinity over NLpolyWT:NLpepWT worked out at 10000 fold.

As for VSGWRLFKKISN [NLpep80], the dissociation constant (Kd) is under 1 nM and the fold improved affinity over NLpolyWT:NLpepWT was determined as 10000 fold.

Another assay deals with T1, NLpoly11S. Kind of assay: luminescence complementation titration, one-site specific binding. As to conditions: chains peptide; modification not given.
In turn, NVSGWRLFKKISN [NLpep78] showed a Kd of 9.56 nM. That is a single-digit nanomolar value.

For another assay, the target named is T1, NLpoly11S. The description is as above. As to conditions: chains peptide; modification not given. The source holds these as a separate data set.
On to NVTGYRLFKKISN [NLpep79], for which the Kd worked out at 13.1 nM.

Another assay addresses T2, NLpoly 5P.
T2 chain: T1 chain with L33F, R48L, E77K, V78I, P95H, L109I, S159P
Kind of assay: luminescence complementation; HeLa lysate. As to conditions: chains peptide; modification not given.
VSGWRLFKKISN [NLpep80] gave a Kd of 1 nM.

Substrate in a further assay: CP Nluc
Kind of assay: cell-based or functional assay.
Details: not given
On to VSGWQLFKKIS (modifications not checked) [Gln-162], for which the inhibition of the luminescence generated by CP Nluc is over 1 log.

For VSGWALFKKIS (modifications not checked) [Ala-162], the inhibition of the luminescence generated by CP Nluc was over 2 logs.

The next assay has as its target T1, NLpoly11S. Kind of assay: luminescence complementation titration, one-site specific binding. As to conditions: chains peptide; modification not given. The source holds these as a separate data set.
In the case of NVTGYRLFKKISN [NLpep79], the Kd is 20.3 nM.

In the case of VTGYRLFEKIS [NLpep99], the Kd came out at 266 nM.

VEGYRLFEKIS [NLpep104] gave a Kd of 1740 nM.

With VTGYRLFEKIL [NLpep128], the Kd is 237 nM.

For VTGYRLFEKES [NLpep101], the Kd was found to be 3120 nM. This Kd is about 13-fold higher than that of the molecule before.

NVSGWRLFKKISN [NLpep78] showed a Kd of 2.39 nM.

The next assay deals with T1, NLpoly11S. Briefly: luminescence complementation titration, one-site specific binding fit.
Details: not given
Consider VTGYRLFQKIL (modifications not checked) [array2.37], for which the Bmax worked out at 127000 and the Kd turned out to be 362 nM.

VTGYRLFEKES (modifications not checked) [array2.21] registered a Bmax of 8620 and a Kd of 1490 nM.

VTGYRLFKQIS (modifications not checked) [array2.4]: the Bmax amounted to 104000 and the Kd came to 746 nM.

Take VTGYRLFQKAL (modifications not checked) [array2.38]: the Bmax is 72800 and the Kd stood at 975 nM.

The molecule VTGYRLFKKIL (modifications not checked) [array2.28] gave a Bmax of 141000 and a Kd of 76.6 nM.

In the case of VTGYRLFKQEL (modifications not checked) [array2.33], the Bmax is 8550 and the dissociation constant Kd is 1950 nM.

In turn, VTGYRLFQQAL (modifications not checked) [array2.41] had a Bmax of 3470 and a Kd of 3970 nM.

Molecule VTGYRLFQEES (modifications not checked) [array2.18] registered a Bmax of 5110 and a Kd of 67300 nM.

Consider VTGYRLFQEIL (modifications not checked) [array2.43], for which the Bmax worked out at 9410 and the Kd was found to be 17200 nM.

Take VTGYRLFEQEL (modifications not checked) [array2.51]: the Bmax was 46200 and the Kd was 85000 nM.

For the molecule VTGYRLFKKAL (modifications not checked) [array2.29], the Bmax stood at 98600 and the equilibrium dissociation constant (Kd) stood at 276 nM.

In the case of VTGYRLFQEIS (modifications not checked) [array2.16], the Bmax is 1320 and the Kd was found to be 2560 nM.

VTGYRLFKQIL (modifications not checked) [array2.31] showed a Bmax of 115000 and a Kd of 2990 nM.

As to VTGYRLFEQES (modifications not checked) [array2.24], the Bmax turned out to be 1830 and the Kd turned out to be 7830 nM.

VTGYRLFEEEL (modifications not checked) [array2.54]: the Bmax came out at 251000 and the Kd amounted to 68300 nM.

With VTGYRLFQQIL (modifications not checked) [array2.40], the Bmax came to 66300 and the Kd stood at 122000 nM.

VTGYRLFEQAS (modifications not checked) [array2.23] yielded a Bmax of 3820 and a Kd of 4170 nM.

The molecule VTGYRLFEKIL (modifications not checked) [array2.46] had a Bmax of 219000 and a Kd of 1920 nM.

Molecule VTGYRLFEQIS (modifications not checked) [array2.22] came in with a Bmax of 121000 and a Kd of 10800 nM.

For VTGYRLFEKEL (modifications not checked) [array2.48], the Bmax is 10900 and the Kd amounted to 2440 nM.

Take VTGYRLFQEAL (modifications not checked) [array2.44]: the Bmax turned out to be 4230 and the Kd is 16000 nM.

The molecule VTGYRLFQQEL (modifications not checked) [array2.42] showed a Bmax of 14200 and a Kd of 19000 nM.

For the molecule VTGYRLFKKAS (modifications not checked) [array2.2], the Bmax worked out at 104000 and the Kd turned out to be 241 nM.

On to VTGYRLFEQIL (modifications not checked) [array2.49], for which the Bmax worked out at 99200 and the Kd is 124000 nM.

For the molecule VTGYRLFEKAS (modifications not checked) [array2.20], the Bmax was found to be 36300 and the dissociation constant Kd worked out at 1790 nM.

Turning to VTGYRLFEQAL (modifications not checked) [array2.50], the Bmax turned out to be 17100 and the Kd was 40400 nM.

For VTGYRLFKQAL (modifications not checked) [array2.32], the Bmax amounted to 34900 and the Kd worked out at 3560 nM.

In the case of VTGYRLFKEEL (modifications not checked) [array2.36], the Bmax amounted to 1720 and the dissociation constant Kd was found to be 7780 nM.

As for VTGYRLFKEIL (modifications not checked) [array2.34], the Bmax came to 21900 and the equilibrium dissociation constant (Kd) was found to be 4400 nM.

Molecule VTGYRLFQKEL (modifications not checked) [array2.39] registered a Bmax of 33100 and a Kd of 2480 nM.

In the case of VTGYRLFKKES (modifications not checked) [array2.3], the Bmax turned out to be 56000 and the Kd worked out at 773 nM.

Molecule VTGYRLFQEEL (modifications not checked) [array2.45] displayed a Bmax of 14300 and a Kd of 35400 nM.

The molecule VTGYRLFEKIS (modifications not checked) [array2.19] came in with a Bmax of 123000 and a Kd of 605 nM.

Take VTGYRLFEKAL (modifications not checked) [array2.47]: the Bmax stood at 34500 and the Kd is 1810 nM.

In the case of VTGYRLFKKEL (modifications not checked) [array2.30], the Bmax was 51100 and the Kd was 671 nM.

In turn, VTGYRLFKEAL (modifications not checked) [array2.35] displayed a Bmax of 5550 and a Kd of 5150 nM.

As usually defined, the Kd is the concentration at which binding is half-saturated.

The values are drawn from patent US20200292534A1.
